B13: phospho-LAT (endogenous, TCR-stimulated Jurkat-derived dG32 T cells) (other, UniProt O43561-2 1-233, looked up)
chain: MEEAILVPCVLGLLLLPILAMLMALCVHCHRLPGSYDSTSSDSLYPRGIQFKRPHTVAPWPPAYPPVTSYPPLSQPDLLPIPRSPQPLGGSHRTPSSRRDSDGANSVASYENEEPACEDADEDEDDYHNPGYLVVLPDSTPATSTAAPSAPALSTPGIRDSAFSMESIDDYVNVPESGESAEASLDGSREYVNVSQELHPGAAKTEPAALSSQEAEEVEEEGAPDYENLQELN
modifications: tyrosine-phosphorylated after anti-TCR (C305) stimulation; detected with anti-phospho-LAT (pY132)
notes: Endogenous protein in lysates; also called pLAT; pY132-phosphorylated LAT

Square brackets hold non-standard residues; d marks the D form. Ends that are not written are not given here. pY = N[C@@H](Cc1ccc(OP(=O)(O)O)cc1)C(=O)O

One data set concerns the target T1, monomeric Gads SH2 (Homo sapiens, UniProt O75791).
T1 construct: The SH2 only construct encoded residues Q54-Q153 of Gads, and was tagged at the N-terminus with either MBP or His; made in house; host or cells: E. coli BL21 codon-plus
T1 sequence (O75791 54-153): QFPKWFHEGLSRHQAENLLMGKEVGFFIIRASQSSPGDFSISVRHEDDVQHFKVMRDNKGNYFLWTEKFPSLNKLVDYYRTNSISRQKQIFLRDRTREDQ
The experiment in a line: Size exclusion chromatography of monomeric Gads SH2 incubated with LAT peptides. It is filed as binding. Particulars: 0.7 μM MBP-Gads SH2 monomeric fraction, 5 μM peptide, 15 minutes on ice. Here is the method: FIG. 9A is a schematic representation of two possible modes of Gads binding to 2pY-LAT. […] In FIG. 9C, 0.7 μM full length MBP-Gads from the monomeric fraction, was incubated for 15 minutes at 37° C., either alone (solid line), or in the presence of 5 μM 2pY-LAT peptide (SEQ ID NO: 32, dotted line). […] 20 μM MBP-Gads SH2 from the dimeric fraction was incubated for 30 minutes on ice (blue) or at 37° C. for 15 minutes (red, solid line), followed by an additional 15 minutes at 37° C. in the presence of 40 μM of 2pY-LAT (SEQ ID NO: 32, red dotted line); and then resolved by size exclusion chromatography.
Fast protein liquid chromatography (FPLC)—MBP- and His-tagged proteins were resolved by size exclusion chromatography at 12° C., using an ÄKTA FPLC system (GE Healthcare), fitted with Superdex 200 10/300 or 16/60 HiLoad for MBP-tagged proteins or Superdex 75 10/300 for His-tagged proteins, in column buffer containing 20 mM HEPES pH 7.3, 100 mM NaCl, 1 mM EDTA, 10% glycerol.
Two possible modes of Gads binding to 2pY-LAT were envisioned, single and paired (FIG. 9A). To ensure the availability of both modes, a 7-fold molar excess of 2pY-LAT peptide was applied. In the absence of cooperativity, the large molar excess of unbound SH2-binding sites should favor unpaired binding (FIG. 9A, left).
(In general: In gel filtration, larger molecules generally elute earlier.)

The nature of data set [1]: nano-DSF of dimeric His-SH2, self-association. (Differential scanning fluorimetry follows unfolding on heating by fluorescence.)
Data set [2] deals with the molecule itself. The data set can be described thus: size exclusion chromatography; self-association.
For data set [3], the target named is pY171-LAT peptide (singly phosphorylated on Y171). The experiment in a line: ITC at 25 C, peptide injected into monomeric MBP-Gads SH2; KD = 1/KA, 1:1 model.
Data set [4] has the same target. The experiment in a line: isothermal titration calorimetry, 1:1 binding model (Affinimeter), linked-parameter analysis of three repeats.
Data set [5] deals with the molecule itself. The data set can be described thus: size exclusion chromatography; self-association. The source holds these as a separate data set.
Data set [6] in a line: nano-DSF of dimeric MBP-Gads SH2, self-association.
Data set [7] concerns the molecule itself. The experiment in a line: size exclusion chromatography, Superdex 200 10/300 GL; self-association (dimer). Here is the method:
Size-Exclusion Chromatography and Multi-Angle Light Scattering (SEC-MALS)—The average molecular weight of Gads proteins was determined by SEC-MALS. The system consisted of an ÄKTA avant 25, coupled to a UV detector (GE Healthcare) and a miniDAWN triple-angle light-scattering detector (Wyatt Technology). […] Data collection and analysis was performed with Wyatt's ASTRA 6.1.1 software.

Data set [8] concerns the molecule itself. The data set can be described thus: size exclusion chromatography; self-association. This is another data set of the same source.
Data set [9] has as its target B13. The data set can be described thus: streptactin pull-down of twin-strep Gads-GFP from dG32 cell lysates, western blot with anti-pY132-LAT. Background: Immunoblotting shows a protein as a band on a membrane.
Data set [10] deals with the molecule itself. The experiment in a line: size exclusion chromatography, self-association.
Data set [11] concerns the molecule itself. The experiment in a line: analytical size exclusion chromatography of the dimeric fraction after incubation at 37°C; self-association.
Data set [12] addresses T2, N-terminally twin-strep-tagged full length human Gads-GFP F92D (human, UniProt O75791 1-330).
T2 construct: Expressed in dG32 T cells and in Gads-deficient murine BMMCs; also called Gads F92D; F92D-reconstituted; not shown: N-terminal twin-strep tag; C-terminal monomeric GFP (A206K) from pMIGR
T2 sequence: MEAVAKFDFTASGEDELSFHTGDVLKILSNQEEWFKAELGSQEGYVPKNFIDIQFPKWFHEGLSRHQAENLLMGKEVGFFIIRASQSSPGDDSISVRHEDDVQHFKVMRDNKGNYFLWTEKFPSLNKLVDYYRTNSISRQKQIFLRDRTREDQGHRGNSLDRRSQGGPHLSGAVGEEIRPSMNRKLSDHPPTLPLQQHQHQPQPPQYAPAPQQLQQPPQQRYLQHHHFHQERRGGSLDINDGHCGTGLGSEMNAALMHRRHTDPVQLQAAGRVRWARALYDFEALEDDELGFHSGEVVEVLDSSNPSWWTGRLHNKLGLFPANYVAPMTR
The experiment in a line: streptactin pull-down of twin-strep Gads-GFP from dG32 cell lysates, western blot with anti-pY132-LAT.

Usually Kd stands for a measure of binding affinity in units of concentration. Read a high Kd as lower affinity.

On to “DDpYVNVPESGESAEASLDGSREpYVNVSQE (DD[pY]VNVPESGESAEASLDGSRE[pY]VNVSQE) [2pY-LAT, 29-residue LAT peptide encompassing tyrosines 171 and 191, doubly phosphorylated]”, for which the “Gads mobility shift on size exclusion chromatography (paired binding / dimeric form)” value with monomeric Gads SH2 was “dramatic shift towards the dimeric form”.

B1: His-tagged Gads SH2 (His-SH2) (protein)
chain: MHHHHHHGSMQFPKWFHEGLSRHQAENLLMGKEVGFFIIRASQSSPGDFSISVRHEDDVQHFKVMRDNKGNYFLWTEKFPSLNKLVDYYRTNSISRQKQIFLRDRTREDQ
As to B1, the “temperature of monomerization (first nano-DSF transition)” value in data set [1] came out at 32.5 °C.

B2: MBP-Gads SH2 F92A/R109A (other, not shown: large carriers; small tags and cut ends)
chain: MQFPKWFHEGLSRHQAENLLMGKEVGFFIIRASQSSPGDASISVRHEDDVQHFKVMADNKGNYFLWTEKFPSLNKLVDYYRTNSISRQKQIFLRDRTREDQ
notes: Double mutant in the context of MBP-Gads SH2; also called F92A/R109A SH2 mutant
On to B2, for which the binding result in [2] is listed as “no binding”. The same molecule yielded a Kd in [3] of 335 nM. In [4], this molecule came in with an H of -9030 cal/mol.

B3: MBP-Gads SH2 R109D (other, not shown: large carriers; small tags and cut ends)
chain: MQFPKWFHEGLSRHQAENLLMGKEVGFFIIRASQSSPGDFSISVRHEDDVQHFKVMDDNKGNYFLWTEKFPSLNKLVDYYRTNSISRQKQIFLRDRTREDQ
notes: Point mutant in the context of MBP-Gads SH2
For B3, the binding result in [5] is on record as “binds”.

B4: MBP-Gads SH2 R109A (other)
chain: MQFPKWFHEGLSRHQAENLLMGKEVGFFIIRASQSSPGDFSISVRHEDDVQHFKVMADNKGNYFLWTEKFPSLNKLVDYYRTNSISRQKQIFLRDRTREDQ
notes: Point mutant in the context of MBP-Gads SH2; not shown: N-terminal MBP tag and its linker from pMAL-C5x (NEB)
As for B4, the binding result in data set [5] was “binds”.

B5: MBP-Gads SH2 (SH2 only construct, residues Q54-Q153 of Gads), wild type (protein)
chain: QFPKWFHEGLSRHQAENLLMGKEVGFFIIRASQSSPGDFSISVRHEDDVQHFKVMRDNKGNYFLWTEKFPSLNKLVDYYRTNSISRQKQIFLRDRTREDQ
For B5, the “temperature of subtle transition of the dimeric form (nano-DSF)” value in data set [6] is “approximately 33 °C”. Besides, in [3], the Kd came out at 177 nM. In data set [4], the H is -7230 cal/mol.

B6: full length MBP-tagged Gads (MBP-Gads), wild type (other, not shown: large carriers)
chain: MEAVAKFDFTASGEDELSFHTGDVLKILSNQEEWFKAELGSQEGYVPKNFIDIQFPKWFHEGLSRHQAENLLMGKEVGFFIIRASQSSPGDFSISVRHEDDVQHFKVMRDNKGNYFLWTEKFPSLNKLVDYYRTNSISRQKQIFLRDRTREDQGHRGNSLDRRSQGGPHLSGAVGEEIRPSMNRKLSDHPPTLPLQQHQHQPQPPQYAPAPQQLQQPPQQRYLQHHHFHQERRGGSLDINDGHCGTGLGSEMNAALMHRRHTDPVQLQAAGRVRWARALYDFEALEDDELGFHSGEVVEVLDSSNPSWWTGRLHNKLGLFPANYVAPMTR
notes: Purified as monomeric and dimeric SEC fractions; also called full length Gads; Gads-MBP protein
With B6, in data set [7], the binding result was “binds”.

B7: full length MBP-Gads F92A/R109A (other, not shown: large carriers; small tags and cut ends)
chain: MEAVAKFDFTASGEDELSFHTGDVLKILSNQEEWFKAELGSQEGYVPKNFIDIQFPKWFHEGLSRHQAENLLMGKEVGFFIIRASQSSPGDASISVRHEDDVQHFKVMADNKGNYFLWTEKFPSLNKLVDYYRTNSISRQKQIFLRDRTREDQGHRGNSLDRRSQGGPHLSGAVGEEIRPSMNRKLSDHPPTLPLQQHQHQPQPPQYAPAPQQLQQPPQQRYLQHHHFHQERRGGSLDINDGHCGTGLGSEMNAALMHRRHTDPVQLQAAGRVRWARALYDFEALEDDELGFHSGEVVEVLDSSNPSWWTGRLHNKLGLFPANYVAPMTR
notes: Full length human Gads with double mutation; also called full length Gads F92A/R109A
With B7, the binding result in data set [8] is recorded as “no binding”.

B8: N-terminally twin-strep-tagged full length human Gads-GFP F92A/R109A (other)
chain: MEAVAKFDFTASGEDELSFHTGDVLKILSNQEEWFKAELGSQEGYVPKNFIDIQFPKWFHEGLSRHQAENLLMGKEVGFFIIRASQSSPGDASISVRHEDDVQHFKVMADNKGNYFLWTEKFPSLNKLVDYYRTNSISRQKQIFLRDRTREDQGHRGNSLDRRSQGGPHLSGAVGEEIRPSMNRKLSDHPPTLPLQQHQHQPQPPQYAPAPQQLQQPPQQRYLQHHHFHQERRGGSLDINDGHCGTGLGSEMNAALMHRRHTDPVQLQAAGRVRWARALYDFEALEDDELGFHSGEVVEVLDSSNPSWWTGRLHNKLGLFPANYVAPMTR
notes: Expressed in dG32 T cells; also called Gads F92A/R109A; not shown: N-terminal twin-strep tag; C-terminal monomeric GFP (A206K) from pMIGR
Take B8: in data set [9], the binding result is reported as “no binding”.

B9: MBP-Gads lacking the C-terminal SH3 and linker (ΔC-SH3+linker, Δ154-328) (other)
chain: MEAVAKFDFTASGEDELSFHTGDVLKILSNQEEWFKAELGSQEGYVPKNFIDIQFPKWFHEGLSRHQAENLLMGKEVGFFIIRASQSSPGDFSISVRHEDDVQHFKVMRDNKGNYFLWTEKFPSLNKLVDYYRTNSISRQKQIFLRDRTREDQTR
notes: Deletion of residues 154-328; also called lacking the C-SH3 domain and the linker domain; not shown: N-terminal MBP tag and its linker from pMAL-C5x (NEB)
In the case of B9, the binding result in data set [10] is recorded as “binds”.

B10: MBP-Gads lacking the C-terminal SH3 (ΔCSH3 Gads, Δ274-328) (other)
chain: MEAVAKFDFTASGEDELSFHTGDVLKILSNQEEWFKAELGSQEGYVPKNFIDIQFPKWFHEGLSRHQAENLLMGKEVGFFIIRASQSSPGDFSISVRHEDDVQHFKVMRDNKGNYFLWTEKFPSLNKLVDYYRTNSISRQKQIFLRDRTREDQGHRGNSLDRRSQGGPHLSGAVGEEIRPSMNRKLSDHPPTLPLQQHQHQPQPPQYAPAPQQLQQPPQQRYLQHHHFHQERRGGSLDINDGHCGTGLGSEMNAALMHRRHTDPVQLQAAGRVTR
notes: Deletion of residues 274-328; also called lacking the C-SH3 domain; not shown: N-terminal MBP tag and its linker from pMAL-C5x (NEB)
Turning to B10, the binding result in data set [10] was “binds”.

B11: MBP-Gads lacking the linker (Δlinker Gads, Δ154-267) (other)
chain: MEAVAKFDFTASGEDELSFHTGDVLKILSNQEEWFKAELGSQEGYVPKNFIDIQFPKWFHEGLSRHQAENLLMGKEVGFFIIRASQSSPGDFSISVRHEDDVQHFKVMRDNKGNYFLWTEKFPSLNKLVDYYRTNSISRQKQIFLRDRTREDQQAAGRVRWARALYDFEALEDDELGFHSGEVVEVLDSSNPSWWTGRLHNKLGLFPANYVAPMTR
notes: Deletion of residues 154-267; also called lacking the linker domain; not shown: N-terminal MBP tag and its linker from pMAL-C5x (NEB)
Regarding B11, the binding result in [10] is on record as “binds”.

B12: MBP-Gads lacking the N-terminal SH3 (ΔN-SH3 Gads, Δ2-53) (other, not shown: large carriers; small tags and cut ends)
chain: MQFPKWFHEGLSRHQAENLLMGKEVGFFIIRASQSSPGDFSISVRHEDDVQHFKVMRDNKGNYFLWTEKFPSLNKLVDYYRTNSISRQKQIFLRDRTREDQGHRGNSLDRRSQGGPHLSGAVGEEIRPSMNRKLSDHPPTLPLQQHQHQPQPPQYAPAPQQLQQPPQQRYLQHHHFHQERRGGSLDINDGHCGTGLGSEMNAALMHRRHTDPVQLQAAGRVRWARALYDFEALEDDELGFHSGEVVEVLDSSNPSWWTGRLHNKLGLFPANYVAPMTR
notes: Deletion of residues 2-53; also called Gads ΔN; Gads lacking the N-SH3
Take B12: the binding result in data set [11] is “binds”.
For B13, in data set [12], the binding result is listed as “no binding”.
